Patent US5763571

Molecular target: c-Ha-Ras bound to GTP (Ras-GTP) (Homo sapiens (Human)) (UniProt P01112)
Experiment: assay not given

fold reduction in binding affinity against Raf(1-149): 10 fold
Substance: Raf(1-137)
